Results: paper PMC4370504, “Structural Basis for Ubiquitin Recognition by Ubiquitin-Binding Zinc Finger of FAAP20” (PLoS ONE, 2015)

Experiments:
Experiment in all cases: SPR; Biacore T200, Sensor Chip C1; GST-fused Ub or Ub2 captured by immobilised anti-GST antibodies (200-400 RU); FAAP20-UBZ injected 60 s at 10 uL/min; 25°C, HBS-P (10 mM HEPES-Na pH 7.4, 150 mM NaCl, 0.05% surfactant P20); equilibrium fit, 1:1 model; triplicate
Settings in all cases: both partners purified
[1] = biological target: T1, GST-fused K63-linked diubiquitin (K63-Ub2) (UniProt P0CG48 1-76; P0CG48 1-76, K63R | additional aspartate residue at its C-terminal extremity (D77), K63-linked to the other Ub chain | K63-linked to the other Ub chain)
T1 construct: ubiquitin carrying the K63R mutation, GST-fused; ubiquitin with an additional aspartate residue at its C-terminal extremity (D77 Ub); Surmised: Gly76 of GST-K63R Ub (distal) is joined by an isopeptide bond to Lys63 of D77 Ub (proximal); also called K63-linked Ub2; GST-fused K63-Ub2

[2] = biological target: T2, GST-fused K48-linked diubiquitin (K48-Ub2) (UniProt P0CG48 1-76; P0CG48 1-76, K48R | additional aspartate residue at its C-terminal extremity (D77), K48-linked to the other Ub chain | K48-linked to the other Ub chain)
T2 construct: ubiquitin carrying the K48R mutation, GST-fused; ubiquitin with an additional aspartate residue at its C-terminal extremity (D77 Ub); Surmised: Gly76 of GST-Ub K48R (distal) is joined by an isopeptide bond to Lys48 of D77 Ub (proximal); also called K48-linked Ub2; GST-fused K48-Ub2

[3] = biological target: T1, GST-fused K63-linked diubiquitin …; remark: listed apart in the source
[4] = biological target: T3, GST-fused M1-linked diubiquitin (M1-Ub2) (UniProt P0CG48 1-76; P0CG48 1-76)
T3 construct: ubiquitin, first (distal) moiety of the M1-linked (linear, head-to-tail) diubiquitin; ubiquitin, second (proximal) moiety, its Met1 joined to Gly76 of the first; Written as one chain of two ubiquitins, as M1-linked; also called M1-linked Ub2; GST-fused M1-Ub2; source: purified (Glutathione Sepharose FF, ResourceQ)

GST-fused ubiquitin (Ub) [5] = biological target: T4, GST-fused ubiquitin (Ub) (UniProt P0CG48 1-76)
T4 construct: ubiquitin (Ub), the mature product of a ubiquitin precursor; Captured on the chip by anti-GST antibodies; source: purified (Glutathione Sepharose FF, ResourceQ)

GST-fused ubiquitin (Ub) [6] = biological target: T4, GST-fused ubiquitin (Ub); remark: listed apart in the source

B1: FAAP20-UBZ (UBZ domain of FAAP20, residues 142-180), wild type (domain or fragment, human, UniProt Q6NZ36 142-180, looked up)
chain: AALRSCPMCQKEFAPRLTQLDVDSHLAQCLAESTEDVTW
notes: also called FAAP20-UBZ(wt); WT; source: E. coli Rosetta (DE3), purified (Glutathione Sepharose FF, ResourceQ, HRV3C cleavage, Superdex75); not shown: GST, N-terminal, cleaved
stoichiometry N [1]: 2 | Kd [2]: 39.1 µM | Kd [3]: 35.9 µM | Kd [4]: 22.3 µM | Kd (GST-fused ubiquitin (Ub) [5]): 19.9 µM

B2: FAAP20-UBZ D177A (domain or fragment, human, UniProt Q6NZ36 142-180, looked up)
chain: AALRSCPMCQKEFAPRLTQLDVDSHLAQCLAESTEAVTW
notes: human FAAP20, UBZ domain, residues 142-180; source: purified similarly to wild-type FAAP20-UBZ (E. coli Rosetta (DE3)); not shown: GST, N-terminal, cleaved
Kd (GST-fused ubiquitin (Ub) [6]): 218 µM

B3: FAAP20-UBZ L161A (domain or fragment, human, UniProt Q6NZ36 142-180, looked up)
chain: AALRSCPMCQKEFAPRLTQADVDSHLAQCLAESTEDVTW
notes: as for B2
Kd (GST-fused ubiquitin (Ub) [6]): 125 µM

B4: FAAP20-UBZ A172L (domain or fragment, human, UniProt Q6NZ36 142-180, looked up)
chain: AALRSCPMCQKEFAPRLTQLDVDSHLAQCLLESTEDVTW
notes: as for B2
Kd (GST-fused ubiquitin (Ub) [6]): 113 µM
